Where two headings read alike, the source gives them in different places.

Test [1] deals with human CD40 on HEK293 cells stably transfected with the human CD40 gene (HEK-Blue CD40L cells) (human) (UniProt P25942). Nature of the test: HEK293-CD40 cells binding; method not described.
The target in test [2] is His-tagged human CD40 (h-CD40-his) recombinant protein (human) (UniProt P25942). Nature of the test: ELISA, human CD40-his coated.
The target is the same in test [3]. Nature of the test: ELISA, human CD40-his coated. This is another data set of the same source. Background: In an ELISA, binding on a coated surface is turned into a signal by an enzyme label.
The target in test [4] is His-tagged rhesus CD40 (rhesus-CD40-his) recombinant protein (rhesus) (UniProt F6SNI1). Nature of the test: ELISA, rhesus CD40-his coated.
His-tagged rhesus CD40 (rhesus-CD40-his) recombinant protein (rhesus), sequence (F6SNI1 entry or part of it): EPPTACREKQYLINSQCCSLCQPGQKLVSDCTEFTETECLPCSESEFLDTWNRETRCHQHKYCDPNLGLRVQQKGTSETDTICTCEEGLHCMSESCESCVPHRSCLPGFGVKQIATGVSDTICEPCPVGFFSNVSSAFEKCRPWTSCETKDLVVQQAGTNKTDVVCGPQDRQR
Test [5] has as its target Fc-tagged human CD40 (h-CD40-Fc) recombinant protein (human) (UniProt P25942). Nature of the test: hCD40/hCD40L blocking ELISA, CD40L as competitor.
Test [6] deals with His-tagged human CD40 (h-CD40-his) recombinant protein (human) (UniProt P25942). Nature of the test: Biacore X100, antibody captured by anti-human antibody on CM5 chip, CD40 antigen as analyte, 1:1 model. Background: In SPR one partner is held on a chip, and binding of the other changes the refractive index at the surface.
Test [7] deals with human CD40 on HEK293 cells stably transfected with the human CD40 gene (HEK-Blue CD40L cells) (human) (UniProt P25942). Nature of the test: HEK293-CD40 cells binding; method not described. This is another data set of the same source.
The target in test [8] is His-tagged human CD40 (h-CD40-his) recombinant protein (human) (UniProt P25942). Nature of the test: Biacore X100, antibody captured by anti-human antibody on CM5 chip, CD40 antigen as analyte, 1:1 model. This is another data set of the same source.
The target in test [9] is Fc-tagged human CD40 (h-CD40-Fc) recombinant protein (human) (UniProt P25942). Nature of the test: hCD40/hCD40L blocking ELISA, CD40L as competitor. This is another data set of the same source.
Fc-tagged human CD40 (h-CD40-Fc) recombinant protein (human), sequence (P25942 21-193 limits assumed): as the sequence (F6SNI1 entry or part of it) above, with S43G, R56H, L89W, M92T, S95A, P101L, L106S, R142H, Q172L counted along it

His-tagged human CD40 (h-CD40-his) recombinant protein (human), sequence (P25942 21-193 limits assumed): as the sequence (F6SNI1 entry or part of it) above, with S43G, R56H, L89W, M92T, S95A, P101L, L106S, R142H, Q172L counted along it
human CD40 on HEK293 cells stably transfected with the human CD40 gene (HEK-Blue CD40L cells) (human), sequence (P25942 21-277): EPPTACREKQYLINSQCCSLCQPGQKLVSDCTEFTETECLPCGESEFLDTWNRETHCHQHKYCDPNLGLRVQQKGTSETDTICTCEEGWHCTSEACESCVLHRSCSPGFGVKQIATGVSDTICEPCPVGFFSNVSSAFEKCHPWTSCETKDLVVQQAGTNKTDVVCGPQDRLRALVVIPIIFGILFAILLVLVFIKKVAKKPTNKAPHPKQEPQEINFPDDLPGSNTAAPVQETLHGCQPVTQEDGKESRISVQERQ

B1: Alligator reference (hIgG1) (antibody, INN chains, looked up, V domains shown)
VH: EVQLLESGGGLVQPGGSLRLSCAASGFTFSTYGMHWVRQAPGKGLEWLSYISGGSSYIFYADSVRGRFTISRDNSENALYLQMNSLRAEDTAVYYCARILRGGSGMDLWGQGTLVTVSS
VL: QSVLTQPPSASGTPGQRVTISCTGSSSNIGAGYNVYWYQQLPGTAPKLLIYGNINRPSGVPDRFSGSKSGTSASLAISGLRSEDEADYYCAAWDKSISGLVFGGGTKLTVL
As for B1, the half-maximal effective concentration (EC50) (as a rule, the concentration at which the effect is half-maximal) turned out to be 1.36 µg/mL in test [1]; 0.00329 µg/mL in [2]; 0.00129 µg/mL in [3]; 0.00124 µg/mL in test [4]; 0.397 µg/mL in test [7]. Moreover, the figures for the 50% inhibitory concentration (IC50) in [5] and in test [9] were 0.647 µg/mL and 0.723 µg/mL, respectively. Also, the dissociation constant (Kd) (commonly a measure of binding affinity in units of concentration) in test [6] was determined as 166 nM; in [8], 65.9 nM.

For the origin of these results see patent US20200148778A1.
